Laboratory results from PMC5691071, “Single molecule multiplexed nanopore protein screening in human serum using aptamer modified DNA carriers”.

Target: acetylcholinesterase (AChE) (UniProt O42275 24-633)
Assay: single-molecule nanopore; 100 pM lambda DNA carrier also carrying TBA probe and thrombin, 100 mM KCl; Nanopore: 100 mM KCl Tris-EDTA, pH 8, 45 min incubation; EMSA thrombin: 140 mM NaCl, 20 mM MgCl2, 20 mM PBS pH 7.4, 45 min; EMSA AChE: 2.7 mM KCl, 4 mM MgCl2, PBS pH 7.4, 1 h; temperature not stated
Details: protein: commercial; chain copies: 4; free oligo in EMSA

Sequence of acetylcholinesterase (AChE) (O42275 24-633): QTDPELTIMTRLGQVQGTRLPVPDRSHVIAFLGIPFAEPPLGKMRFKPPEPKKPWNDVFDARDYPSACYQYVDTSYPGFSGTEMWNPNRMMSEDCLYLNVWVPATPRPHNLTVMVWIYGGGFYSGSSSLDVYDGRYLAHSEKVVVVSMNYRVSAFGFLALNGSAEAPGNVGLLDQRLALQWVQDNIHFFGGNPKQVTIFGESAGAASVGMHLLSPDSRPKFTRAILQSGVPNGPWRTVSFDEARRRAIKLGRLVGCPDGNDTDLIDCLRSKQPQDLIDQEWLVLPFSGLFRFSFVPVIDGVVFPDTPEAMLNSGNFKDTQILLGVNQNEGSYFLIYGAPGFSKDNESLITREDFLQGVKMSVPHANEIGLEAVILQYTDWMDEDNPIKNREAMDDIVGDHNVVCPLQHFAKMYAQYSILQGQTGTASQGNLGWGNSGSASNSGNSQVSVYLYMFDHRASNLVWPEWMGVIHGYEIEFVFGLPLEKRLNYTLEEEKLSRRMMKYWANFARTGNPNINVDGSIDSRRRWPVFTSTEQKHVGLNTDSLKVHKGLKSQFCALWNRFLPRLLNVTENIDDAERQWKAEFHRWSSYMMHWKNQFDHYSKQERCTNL

B1: Target ii AChE probe (75 nt) (mixed)
DNA: GGTTGACTGTAGCTCTGGCAGACGTAGTGTGAAGGTACCGGGCGGCGACCTAAGGTGTCGTGCGTAAGTTTTTAA
Question: Does B1 bind?
Answer: binds
